In publication PMC10387464 (Signal Transduction and Targeted Therapy, 2023):

Molecular target: Omicron BA.1 spike trimer (SARS-CoV-2 Omicron BA.1 (B.1.1.529), N440K | G446S)
Assay: cryo-EM structure
Conditions: both partners purified

B1: MB.02 Fab (Fab, V domains shown)
VH: EVQLVQSGAEVKKPGESLKISCKGSGFSFTSYWIGWVRQMPGKGLEWMGIIYPGDSDTRYSPSFQGQVTISADKSISTAYLQWSSLKASDTAMYYCARGGYEDVFDIWGQGTMVTVSS
VL: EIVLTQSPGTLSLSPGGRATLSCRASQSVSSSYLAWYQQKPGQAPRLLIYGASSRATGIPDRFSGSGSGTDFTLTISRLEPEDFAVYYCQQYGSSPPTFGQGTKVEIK
For B1, the “stoichiometry N” value was 3 Fabs per S trimer.
